# Laboratory results published in publication PMC10279719 (Nature Communications, 2023).
# Non-standard residues stand in square brackets, D forms with d. pY = N[C@@H](Cc1ccc(OP(=O)(O)O)cc1)C(=O)O
# B1: PEAK2IDR1 (PEAK2 residues 802-1406) (domain or fragment, human, UniProt Q86YV5 802-1406, looked up)
# chain: EDVSPSGPQQPPPLPQKKIVSRAASSPDGFFWTQGSPKPGTASPKLNLSHSETNVHDESHFSYSLSPGNRHHPVFSSSDPLEKAFKGSGHWLPAAGLAGNRGGCGSPGLQCKGAPSASSSQLSVSSQASTGSTQLQLHGLLSNISSKEGTYAKLGGLYTQSLARLVAKCEDLFMGGQKKELHFNENNWSLFKLTCNKPCCDSGDAIYYCATCSEDPGSTYAVKICKAPEPKTVSYCSPSVPVHFNIQQDCGHFVASVPSSMLSSPDAPKDPVPALPTHPPAQEQDCVVVITREVPHQTASDFVRDSAASHQAEPEAYERRVCFLLLQLCNGLEHLKEHGIIHRDLCLENLLLVHCTLQAGPGPAPAPAPAPAPAAAAPPCSSAAPPAGGTLSPAAGPASPEGPREKQLPRLIISNFLKAKQKPGGTPNLQQKKSQARLAPEIVSASQYRKFDEFQTGILIYELLHQPNPFEVRAQLRERDYRQEDLPPLPALSLYSPGLQQLAHLLLEADPIKRIRIGEAKRVLQCLLWGPRRELVQQPGTSEEALCGTLHNWIDMKRALMMMKFAEKAVDRRRGVELEDWLCCQYLASAEPGALLQSLKLLQLL
# modifications: phosphorylated at the tandem site 14-3-3 motif (RAASSP) by LC MS/MS
# notes: PEAK2 (SgK223, PRAG1), human, UniProt Q86YV5, residues 802-1406; Homodimer by SEC-MALS; TEV-cleavable tag
# B2: PEAK2^709–721 peptide (Ac-FSPPPPPPKSRHL-NH2) (peptide)
# peptide: Ac-FSPPPPPPKSRHL-NH2
# notes: human PEAK2 (SgK223, PRAG1) residues 709-721; also called second PRM of PEAK2; source: synthetic peptide, bought: Mimotopes
# B3: PEAK3^tandem peptide, non-phosphorylated (residues 54–74; Ac-PLPPPLPKKILTRTQSLPTRR-NH2) (peptide)
# peptide: Ac-PLPPPLPKKILTRTQSLPTRR-NH2
# notes: source: synthetic peptide, bought: Mimotopes
# B4: PEAK3 23-38-pY24 peptide (Ac-T(pY)SNLGQIRAHLLPSK-NH2) (peptide)
# peptide: Ac-T[pY]SNLGQIRAHLLPSK-NH2
# SMILES: CC[C@H](C)[C@H](NC(=O)[C@H](CCC(N)=O)NC(=O)CNC(=O)[C@H](CC(C)C)NC(=O)[C@H](CC(N)=O)NC(=O)[C@H](CO)NC(=O)[C@H](Cc1ccc(OP(=O)(O)O)cc1)NC(=O)[C@@H](NC(C)=O)[C@@H](C)O)C(=O)N[C@@H](CCCNC(=N)N)C(=O)N[C@@H](C)C(=O)N[C@@H](Cc1c[nH]cn1)C(=O)N[C@@H](CC(C)C)C(=O)N[C@@H](CC(C)C)C(=O)N1CCC[C@H]1C(=O)N[C@@H](CO)C(=O)N[C@@H](CCCCN)C(N)=O
# notes: source: synthetic peptide, bought: Mimotopes (95% purity)
# B5: PEAK3^54–66 peptide (Ac-PLPPPLPKKILTR-NH2) (peptide)
# peptide: Ac-PLPPPLPKKILTR-NH2
# notes: also called PEAK3 PRM peptide; source: synthetic peptide, bought: Mimotopes
# Tests used:
# [1] = target: the molecule itself; test: SEC-MALS; Superdex 200 Increase 10/300 GL, 20 mM HEPES pH 7.5, 150 mM NaCl, 1 mM TCEP, 0.5 ml/min
# [2] = target: T1, CrkII NSH3 domain (CrkII^NSH3, residues 134–191) (human, UniProt P46108-1 134-191); test: SPR; Biacore S200; CrkII^NSH3 amine coupled to CM5, peptides injected; 20 °C, HBS-TP (20 mM HEPES pH 7.4, 150 mM NaCl, 1 mM TCEP, 0.005% Tween-P20); steady-state 1:1 fit; conditions: both partners purified
# T1 construct: human CrkII residues 134-191, N-terminal SH3 domain
# [3] = target: T1, CrkII NSH3 domain (CrkII^NSH3, residues …); test: ITC; ternary, sequential; CrkII^NSH3 (400 μM, syringe) titrated into the peptide (16.8 µM) left in the cell after a first titration with 14-3-3ɣ; 25 °C, 20 mM HEPES pH 7.4, 150 mM NaCl, 1 mM TCEP; conditions: both partners purified
# [4] = target: T2, Grb2 SH2 domain (Grb2^SH2) (human, UniProt P62993-1 60-152, biotin (EZ-Link NHS-PEG4-Biotin, 1:1 molar ratio) where it was immobilised (a1)); test: SPR; biotinylated adapter proteins captured with a biotin CAPture kit, pY peptides as analytes; Biacore 8K+, 20 °C, HBS-TP (20 mM HEPES pH 7.4, 150 mM NaCl, 1 mM TCEP, 0.005% Tween-P20) with 2% DMSO; 1 M NaCl regeneration; steady state, 1:1 model; conditions: both partners purified
# T2 construct: SH2 domain of human Grb2; This construct is not in the list of the methods; the other adapter constructs were made in E. coli C41 (DE3) with an N-terminal His8 tag
# [5] = target: T3, CrkII SH2 domain (CrkII^SH2, residues 6-120) (human, UniProt P46108-1 6-120, biotin (EZ-Link NHS-PEG4-Biotin, 1:1 molar ratio) where it was immobilised (a1)); test: as above; conditions: both partners purified
# T3 construct: human CrkII SH2 domain, UniProt P46108-1, residues 6-120; The His tag is TEV-cleavable and was cleaved 'when required'
# [6] = target: T4, full length CrkII, monomer (CrkII^FL monomer) (human, UniProt P46108-1 1-304, biotin (EZ-Link NHS-PEG4-Biotin, 1:1 molar ratio) where it was immobilised (a1)); test: as above; conditions: both partners purified
# T4 construct: full length human CrkII, printed as UniProt P46108-1, residues 1-330
# [7] = target: T5, full length CrkII, dimer (CrkII^FL dimer) (human, UniProt P46108-1 1-304, biotin (EZ-Link NHS-PEG4-Biotin, 1:1 molar ratio) where it was immobilised (a1)); test: as above; conditions: both partners purified
# T5 construct: full length human CrkII, printed as UniProt P46108-1, residues 1-330
# [8] = target: T6, full length Grb2 (Grb2^FL, residues 1-217) (human, UniProt P62993-1 1-217, biotin (EZ-Link NHS-PEG4-Biotin, 1:1 molar ratio) where it was immobilised (a1)); test: as above; conditions: both partners purified
# T6 construct: full length human Grb2, UniProt P62993-1, residues 1-217
# [9] = target: T1, CrkII NSH3 domain (CrkII^NSH3, residues …); test: SPR; Biacore S200; CrkII^NSH3 amine coupled to CM5, peptides injected; 20 °C, HBS-TP (20 mM HEPES pH 7.4, 150 mM NaCl, 1 mM TCEP, 0.005% Tween-P20); steady-state 1:1 fit; conditions: both partners purified; remark: listed apart in the source
binder,measurement,setting,value
B1,stoichiometry N,[1],2
B2,Kd,[2],13 µM
B3,Kd,[3],0.7 µM
B4,Kd,[4],4.2 µM
same,Kd,[5],5.3 µM
same,Kd,[6],6.8 µM
same,Kd,[7],6.2 µM
same,Kd,[8],2.2 µM
B5,Kd,[9],1.7 µM
